This note sets out measurements from PMC10093686, “Structural insights into acetylated histone ligand recognition by the BDP1 bromodomain of Plasmodium falciparum” (International journal of biological macromolecules, 2022).

In test [1] the target is PfBDP1-BRD (residues 303–488 or 333–456), bromodomain of P. falciparum Bromodomain Protein 1, as used in ITC (P. falciparum) (UniProt Q8IJ72). In words: ITC; histone peptide (2.5–5.0 mM) in the syringe, PfBDP1-BRD (303–488 or 333–456; 100–200 μM) in the sample cell; 5°C; 20 mM sodium phosphate pH 7.5, 150 mM NaCl, 1 mM TCEP; 1:1 binding model, single set of identical sites. (In general: Isothermal titration calorimetry measures the heat released or taken up as one component is titrated into another.)

For test [2] the target is unchanged. Described as above. This is another data set of the same source.

Like-named read-outs stand apart in the source and are kept apart here.

On to “H4K5acK8acK12acK16ac histone peptide (1–24), tetra-acetylated histone H4”, for which the results for the dissociation constant Kd in test [1] and in test [2] were 173 µM and 117 µM, respectively.
